Results reported in IntAct's records for PubMed 16482218.

B1: Transcription factor Dp-2 (Mus musculus), Q64163-4 (parent)
chain: MIISTPQRIANSGSVLIGNPYTPAPAMVTQTHIAEAAGWVPSDRKRAREFIDSDFSESKRSKKGDKNGKGLRHFSMKVCEKVQRKGTTSYNEVADELVSEFTNSNNHLAADSAYDQENIRRRVYDALNVLMAMNIISSLPTGKKRNQVDCNSAQECQNLEIEKQRRIERIKQKRAQLQELLLQQIAFKNLVQRNRQNEQQNQGPPAVNSTIQLPFIIINTSRKTVIDCSISSDKFEYLFNFDNTFEIHDDIEVLKRMGMSFGLESGKCSLEDLKIARSLVPKALEGYITDISTGPSWLNQGLLLNSTQSVSNLDPTTGATVPQSSVNQGLCLDAEVALATGQLPASNSHQSSSAASHFSESRGETPCSFNDEDEEDEEEDPSSPE

Variants of: B1
Settings: with 1433e_mouse Ywhae
For S58A, the “effect of a mutation on the interaction” value was “disrupting interaction”.
S61A was tested, and the “effect of a mutation on the interaction” value was “disrupting interaction”.
For S56A, the “effect of a mutation on the interaction” value was “disrupting interaction”.
S53A was tested, and the “effect of a mutation on the interaction” value was “disrupting interaction”.
With S42A the “effect of a mutation on the interaction” value was “disrupting interaction”.
